According to US20030207791A1, “Materials and methods relating to the treatment of leukaemias” (priority 2000, published 2003):

Tests used:
[1] = test system: RARE-G5-TATA reporter (GAL4-VP16 driven transcription); assay: Transcriptional repression of GAL4-VP16 activation, RARE-G5-TATA reporter, transfected HeLa cells; assay type: cell-based
Experimental: FIG. 2. Role of the coiled coil of PML in the altered transcriptional properties of PML-RAR (A): Transcriptional repression by RAR and fusion proteins. Hela cells were co-transfected with the RARE-G5-TATA reporter in the absence (C) or presence of increasing amounts (50, 100, 250, 1000 ng) of the indicated expression vectors and then harvested 48 hours after transfection. Levels of expression of RAR and fusion proteins after transfection are shown in (C). (B) RARE and NCoR dependent transcriptional repression by RAR and fusion proteins. Hela cells were co-transfected with the RARE-G5-TATA or the G5-TATA, reporters and 1 μg of control expression vector (C), RAR (R), PML-RAR (P/R) and their respective AHT derivatives, as indicated. (D) RA sensitivity of RAR and fusion proteins. Cells were co-transfected with 500 ng of the indicated expression vectors. 24 hours after transfection, RA was added at the following concentrations: 1, 10, 100 nM, 1, 10 μM, and cells were harvested after additional 24 hours.
To test this hypothesis, the inventors devised an artificial, reporter system to measure transcriptional repression by RAR and chimeric proteins. The RARE-G5-TATA reporter construct has five GAL4 response elements fused to a minimal promoter region: upstream of the GAL4 sites, a RA responsive element (RARE) allows binding of RAR (or fusion proteins). […] RAR over-expression led to decrease of GAL4-VP16 activation, with 30-40% repression observed with the maximal amount of co-transfected RAR expression vector (1 μg, FIG. 2A), while it exerted no effect on the GAL4-VP16-mediated activation of a cognate promoter lacking the RARE (FIG. 2B). A RAR construct carrying the AHT mutation, which abrogates NCoR binding (Horlein et al., 1995), was unable to prevent activation of the RARE-G5-TATA promoter by GAL4-VP16 (FIG. 2B).
Next, the inventors tested the transcriptional regulatory functions of PML-RAR (or derivatives). […] At the maximal concentration tested (1 μg), the inventors observed 80-90% repression with PML-RAR and 30-40% with RAR (FIG. 2A).
Transient transfection of HeLa, NIH 3T3, SAOS and C33A cells was performed by calcium phosphate as described (Lillie and Green, 1989; Minucci et al., 1994). p53-/- MEFs were transiently transfected by lipofection as described (Pearson et al., 2000). Light units were normalized to expression of a co-transfected β-galactosidase expression plasmid. Results are presented as the mean+standard deviations of at least three independent experiments.

[2] = test system: U937 cells expressing PML-RAR under the control of an inducible promoter; assay: Differentiation (CD14) of U937 cells with inducible PML-RAR treated with vitamin D and TGFβ; assay type: cell-based; conditions: PML-RAR induced, control infection (GFP alone), vitamin D and TGFβ
Source text: The cells were either uninduced (ctr column), or induced to express PML-RAR (PML-RAR column). Cells were transduced with retroviral vectors encoding the coiled coil of PML (RBCC) and GFP as a marker, or with retroviral vectors encoding GFP alone as a control (control). […] In cells expressing the coiled coil of PML (gated in the cytofluorimetric analysis based on the positivity for the GFP marker), PML-RAR was unable to block efficiently differentiation (from 90% to 70%). Levels of expression of PML-RAR were unchanged by expressing the coiled coil region of PML.
RAR oligomerization through the coiled coil region of PML is required for its leukemogenic activity, and deletion of the PML coiled coil is sufficient to lead to loss of oncogenic potential (Minucci et al., 2000). Small molecule compounds able to disrupt PML-RAR oligomers would therefore be able to revert the leukemic phenotype.

Molecule	capacity to repress GAL4-VP16 driven transcription [1]	repression of GAL4-VP16 activation ([1]; maximal amount of expression vector, 1 μg)	differentiated, CD14+ cells [2]
p53-RAR: RAR fused C-terminally to the tetramerization domain present in p53 (protein) GEYFTLQIRGRERFEMFRELNEALELKDAQAGMASNSSSCPTPGGGHLNGYPVPPYAFFFPPMLGGLSPPGALTTLQHQLPVSGYSTPSPATIETQSSSSEEIVPSPPSPPPLPRIYKPCFVCQDKSSGYHYGVSACEGCKGFFRRSIQKNMVYTCHRDKNCIINKVTRNRCQYCRLQKCFEVGMSKESVRNDRNKKKKEVPKPECSESYTLTPEVGELIEKVRKAHQETFPALCQLGKYTTNNSSEQRVSLDIDLWDKFSELSTKCIIKTVEFAKQLPGFTTLTIADQITLLKAACLDILILRICTRYTPEQDTMTFSDGLTLNRTQMHNAGFGPLTDLVFAFANQLLPLEMDDAETGLLSAICLICGDRQDLEQPDRVDMLQEPLLEALKVYVRKRRPSRPHMFPKMLMKITDLRSISAKGAERVITLKMEIPGSMPPLIQEMLENSEGLDTLSGQPGGGGRDGGGLAPPPGSCSPSLSPSSNRSSPATHSP	as strongly as PML-RAR		
PML-RAR: leukaemia-associated chimeric transcription factor, fusion of PML and RAR (protein) MEPAPARSPRPQQDPARPQEPTMPPPETPSEGRQPSPSPSPTERAPASEEEFQFLRCQQCQAEAKCPKLLPCLHTLCSGCLEASGMQCPICQAPWPLGADTPALDNVFFESLQRRLSVYRQIVDAQAVCTRCKESADFWCFECEQLLCAKCFEAHQWFLKHEARPLAELRNQSVREFLDGTRKTNNIFCSNPNHRTPTLTSIYCRGCSKPLCCSCALLDSSHSELKCDISAEIQQRQEELDAMTQALQEQDSAFGAVHAQMHAAVGQLGRARAETEELIRERVRQVVAHVRAQERELLEAVDARYQRDYEEMASRLGRLDAVLQRIRTGSALVQRMKCYASDQEVLDMHGFLRQALCRLRQEEPQSLQAAVRTDGFDEFKVRLQDLSSCITQGKDAAVSKKASPEAASTPRDPIDVDLPEEAERVKAQVQALGLAEAQPMAVVQSVPGAHPVPVYAFSIKGPSYGEDVSNTTTAQKRKCSQTQCPRKVIKMESEEGKEARLARSSPEQPRPSTSKAVSPPHLDGPPSPRSPVIGSEVFLPNSNHVASGAGEAIETQSSSSEEIVPSPPSPPPLPRIYKPCFVCQDKSSGYHYGVSACEGCKGFFRRSIQKNMVYTCHRDKNCIINKVTRNRCQYCRLQKCFEVGMSKESVRNDRNKKKKEVPKPECSESYTLTPEVGELIEKVRKAHQETFPALCQLGKYTTNNSSEQRVSLDIDLWDKFSELSTKCIIKTVEFAKQLPGFTTLTIADQITLLKAACLDILILRICTRYTPEQDTMTFSDGLTLNRTQMHNAGFGPLTDLVFAFANQLLPLEMDDAETGLLSAICLICGDRQDLEQPDRVDMLQEPLLEALKVYVRKRRPSRPHMFPKMLMKITDLRSISAKGAERVITLKMEIPGSMPPLIQEMLENSEGLDTLSGQPGGGGRDGGGLAPPPGSCSPSLSPSSNRSSPATHSP		80-90%	about 30%
